Assay results published in patent US11572572B2, “A138T mutation-containing plant EPSPS mutant, and encoding gene and application thereof” (GEVOTO LLC, priority 2017, dated 2023).
Numbering of substitutions follows the chain as printed.

B1: R2: Oryza sativa EPSPS mutant having only the G111(96)A mutation (SEQ ID NO: 2), encoding gene SEQ ID NO: 16 (protein)
chain: MASNAAAAAAKAEEIVLQPIREISGAVQLPGSKSLSNRILLLSALSEGTTVVDNLLNSEDVHYMLEALKALGLSVEADKVAKRAVVVGCGGKFPVEKDAKEEVQLFLGNAATAMRPLTAAVTAAGGNATYVLDGVPRMRERPIGDLVVGLKQLGADVDCFLGTECPPVRVKGIGGLPGGKVKLSGSISSQYLSALLMAAPLALGDVEIEIIDKLISIPYVEMTLRLMERFGVKAEHSDSWDRFYIKGGQKYKSPGNAYVEGDASSASYFLAGAAITGGTVTVQGCGTTSLQGDVKFAEVLEMMGAKVTWTDTSVTVTGPPREPYGKKHLKAVDVNMNKMPDVAMTLAVVALFADGPTAIRDVASWRVKETERMVAIRTELTKLGASVEEGPDYCIITPPEKLNITAIDTYDDHRMAMAFSLAACADVPVTIRDPGCTRKTFPNYFDVLSTFVRN
modifications: Oryza sativa EPSPS mutant with only G111(96)A mutation
B2: R3: Oryza sativa EPSPS mutant II with G111(96)A and A155(138)T (SEQ ID NO: 7), encoding gene SEQ ID NO: 17 (protein)
chain: B1 chain with A155T
modifications: Oryza sativa EPSPS mutant with mutations G111(96)A and A155(138)T
B3: T2: Triticum aestivum EPSPS mutant containing G113(96)A, P118(101)S, and A157(138)T (SEQ ID NO: 11), gene SEQ ID NO: 22; experimental group of Example 7 (protein)
chain: MATSVAAPAAPAGAEEVVLQPIREISGAVQLPGSKSLSNRILLLSALSEGTTVVDNLLNSEDVHYMLEALEALGLSVEADKVAKRAVVVGCGGRFPVEKDAKEEVKLFLGNAATAMRSLTAAVVAAGGNATYVLDGVPRMRERPIGDLVVGLQQLGTDVDCFLGTNCPPVRINGKGGLPGGKVKLSGSISSQYLSSLLMAAPLALEDVEIEIIDKLISVPYVEMTLKLMEHFGVTAEHSDSWDRFYIKGGQKYKSPGNAYVEGDASSASYFLAGAAITGGTVTVEGCGTTSLQGDVKFAEVLEMMGAKVTWTDTSVTVTGPPRQPFGRKHLKAVDVNMNKMPDVAMTLAVVALFADGPTAIRDVASWRVKETERMVAIRTELTKLGATVEEGPDYCIITPPEKLNITAIDTYDDHRMAMAFSLAACAEVPVTIRDPGCTRKTFPNYFDVLSTFVKN
modifications: Triticum aestivum EPSPS mutant with mutations G113(96)A, P118(101)S, and A157(138)T

Assays:
[1] = test system: double-knockout Escherichia coli strain (EDCE); experiment: Growth of double-knockout E. coli (EDCE) transformed with Oryza sativa EPSPS genes in glyphosate media (Example 5); type: cell-based; conditions: for growth status of transformed Escherichia coli: Example 5, FIG. 1
Source text: An Escherichia coli strain transformed with the Oryza sativa EPSPS mutant I-encoding gene according to Example 1 was used as Experimental Group 1 (having only the A155(138)T mutation).
An Escherichia coli strain transformed with the Oryza sativa EPSPS mutant II-encoding gene according to Example 2 was used as Experimental Group 3 (having the G111(96)A mutation and A155(138)T mutation).
An Escherichia coli strain transformed with a wild-type Oryza sativa EPSPS-encoding gene (SEQ ID NO: 14, encoding wild-type Oryza sativa EPSPS set forth in SEQ ID NO: 5) was used as a control group.
The glyphosate resistance of the Oryza sativa EPSPS mutant I-encoding gene and the encoded Oryza sativa EPSPS mutant I in Escherichia coli, and the glyphosate resistance of the Oryza sativa EPSPS mutant II-encoding gene and the encoded Oryza sativa EPSPS mutant II in Escherichia coli were verified by detecting the growth statuses of the transformed Escherichia coli in media containing different concentrations of glyphosate (0 mM, 1 mM, 2 mM, 20 mM) (media obtained by using M9 as a basal medium and then adding certain concentrations of antibiotics Spec (Spectinomycin), Gen (Gentamycin), and Amp (Ampicillin) and different concentrations of glyphosate).
Here, the Escherichia coli strain used was an double-knockout Escherichia coli strain (Escherichia coli strain DH5a from which an EPSPS gene and a C-P Lyase gene were knocked out, named EDCE, which may be prepared by a method with reference to Chinese Patent Application No. 2016103256926).
The detection was carried out by a method well known in the art, which was briefly described below. Gene encoding Oryza sativa EPSPS mutants was synthesized by a chemical synthesis method, wherein enzymatic digestion sites (Pacl and Sbfl) were introduced at both ends of the gene. The gene were enzymatically cleaved and then ligated in the presence of ligase to an expression vector (e.g., pADV5 vector having a structure as shown in FIG. 4) subjected to the same enzymatic digestion treatment, and then were transformed into the double-knockout Escherichia coli strain. After verification, positive clones were picked out and inoculated and grown in media containing glyphosate. The growth statuses were observed.

[2] = test system: transgenic rice seedlings; experiment: Glyphosate resistance of EPSPS mutants in transgenic rice sprayed with glyphosate (Example 8); type: in vivo, rice (Nipponbare)
[3] = test system: double-knockout Escherichia coli (EDCE); experiment: Growth of double-knockout E. coli (EDCE) transformed with Triticum aestivum EPSPS genes in glyphosate media (Example 7); type: cell-based
Experimental: An Escherichia coli strain transformed with the Triticum aestivum EPSPS mutant-encoding gene according to Example 4 was used as an experimental group.
An Escherichia coli strain transformed with a wild-type Triticum aestivum EPSPS-encoding gene (SEQ ID NO: 20, encoding wild-type Triticum aestivum EPSPS set forth in SEQ ID NO: 10 was used as Control Group 1.
The growth statuses of the transformed Escherichia coli strains in media containing different concentrations of glyphosate (0, 1, 20 mM) were detected to verify the glyphosate resistance of the Triticum aestivum EPSPS mutant-encoding gene and the encoded Triticum aestivum EPSPS mutant in Escherichia coli. Here, the Escherichia coli strain used was double-knockout Escherichia coli (Escherichia coli strain DH5a from which an EPSPS gene and a C-P Lyase gene were knocked out, named EDCE, which may be prepared by a method with reference to Chinese Patent Application. 2016103256926).

[4] = medium containing 1 mM glyphosate
[5] = medium containing 2 mM glyphosate
[6] = medium containing 20 mM glyphosate
[7] = 1X dose glyphosate (1,060 g/ha), day 10 after spraying
[8] = 2X dose glyphosate (2,120 g/ha) on survivors of 1X, after another 10 days
[9] = 5X dose glyphosate (5,300 g/ha) on survivors of 2X, after additional 10 days
[10] = 20X dose glyphosate (21,200 g/ha) on survivors of 5X, after further 10 days

Row | Molecule | growth status of transformed Escherichia coli [1, 4] | % ++&+++ (percentage of moderately and highly glyphosate resistant plants in total plants observed) [2, 7] | plant number with resistance + (low glyphosate resistant) [2, 7] | plant number with resistance ++ (moderately glyphosate resistant) [2, 7] | plant number with resistance +++ (highly glyphosate resistant) [2, 7] | % ++&+++ (percentage of moderately and highly glyphosate resistant plants in total plants observed) [2, 8] | plant number with resistance + (low glyphosate resistant) [2, 8] | plant number with resistance ++ (moderately glyphosate resistant) [2, 8] | plant number with resistance +++ (highly glyphosate resistant) [2, 8] | plant number with resistance − (non-glyphosate resistant, withered or dead) [2, 8] | % ++&+++ (percentage of moderately and highly glyphosate resistant plants in total plants observed) [2, 9] | plant number with resistance + (low glyphosate resistant) [2, 9] | plant number with resistance ++ (moderately glyphosate resistant) [2, 9] | plant number with resistance +++ (highly glyphosate resistant) [2, 9] | plant number with resistance − (non-glyphosate resistant, withered or dead) [2, 9] | % ++&+++ (percentage of moderately and highly glyphosate resistant plants in total plants observed) [2, 10] | plant number with resistance + (low glyphosate resistant) [2, 10] | plant number with resistance ++ (moderately glyphosate resistant) [2, 10] | plant number with resistance +++ (highly glyphosate resistant) [2, 10] | plant number with resistance − (non-glyphosate resistant, withered or dead) [2, 10] | also measured
1 | B1 | showed bacterial plaques | 69.2% | 2 | 1 | 8 | 61.5% | 2 | 2 | 6 | 3 | 46.2% | 2 | 3 | 3 | 5 | 15.4% | 4 | 1 | 1 | 7 | growth status of transformed Escherichia coli [1, 5]: could not grow; growth status of transformed Escherichia coli [1, 6]: could not grow
2 | B2 | showed bacterial plaques | 70.8% | 1 | 9 | 25 | 66.7% | 0 | 4 | 28 | 16 | 50.0% | 0 | 13 | 11 | 24 | 22.9% | 7 | 7 | 4 | 30 | glyphosate concentration of medium in which the E. coli strain was kept in a growing state ([1]; Example 5): up to 20 mM; growth status of transformed Escherichia coli [1, 5]: could grow normally; growth status of transformed Escherichia coli [1, 6]: could grow normally
3 | B3 |  | 75.0% | 2 | 4 | 20 | 59.4% | 3 | 2 | 17 | 10 | 50.0% | 5 | 14 | 2 | 11 | 21.9% | 11 | 7 | 0 | 14 | glyphosate concentration of medium in which the E. coli strain was kept in a growing state [3]: up to 20 mM; level of glyphosate resistance of transformed rice seedlings compared with the mutant lacking the A138T mutation (R4 for R5, T1 for T2) (in words) ([2]; each of 1×, 2×, 5×, and 20× glyphosate doses): higher levels of glyphosate resistance
